Target: the molecule itself
Assay: crystal structure; purified dOrai-P288L in NG/NM detergent with POPC:POPE:POPG lipid, sitting drop, 17°C, sodium citrate pH 6.5, PEG400; 4.5 Å; 2 hexamers in each asymmetric unit

B1: Drosophila melanogaster Orai (dOrai) mutant (P288L) channel, amino acids 132 to 341 with C224S, C283T and P288L (domain or fragment, UniProt Q9U6B8 132-341, looked up)
chain: SMSQSGEDLHSPTYLSWRKLQLSRAKLKASSKTSALLSGFAMVAMVEVQLDHDTNVPPGMLIAFAICTTLLVAVHMLALMISTCILPNIETVSNLHSISLVHESPHERLHWYIETAWAFSTLLGLILFLLEIAILCWVKFYDLSPPAAWSATVVLILVMIIFMAFAIHFYRSLVSHKYEVTVSGIRELEMLKEQMEQDHLEHHNNIRNNG
notes: Orai, Drosophila melanogaster, UniProt Q9U6B8, residues 132 to 341 with C224S, C283T and P288L; codons optimised for Homo sapiens; PreScission site between Orai and eGFP; residues of the site may be left after 3C cleavage; also called dOrai-P288L; dOrai-P288L channel; not shown: eGFP, C-terminal, cleaved
stoichiometry N: 6

Source: publication PMC6497303, “Molecular understanding of calcium permeation through the open Orai channel” (PLoS Biology, 2019)
